Five molecules from publication PMC4165372, “Nutritional status modulates box C/D snoRNP biogenesis by regulated subcellular relocalization of the R2TP complex” (Genome Biology, 2014) can be followed below.

B2: Pih1(1–230) (domain or fragment, S. cerevisiae, UniProt P38768 1-230, looked up)
chain: MADFLLRPIKQRHRNEDKYVSVDAADGSVSKIEPIADFVIKTKLLSANGPEKLQDGRKVFINVCHSPLVPKPEVDFNARIVFPLIIQNEWEIPIITSCYRMDHDKKGQECYVWDCCINSDCSRWICDDIQLREILVEWCLESCEIRDSVVLCRDRIAFPKMKKKGAELPALEVLNDELHQDYKAKMHKIIEEEAGDPMSILRGRNDDGDDNNDPDDGTLPPLFPIENKIS
notes: Pih1, S. cerevisiae, N-terminal domain, residues 1-230 of 344; also called N-terminal domain of Pih1
B3: full-length Pih1 (natural protein, S. cerevisiae, UniProt P38768 1-344, looked up)
chain: MADFLLRPIKQRHRNEDKYVSVDAADGSVSKIEPIADFVIKTKLLSANGPEKLQDGRKVFINVCHSPLVPKPEVDFNARIVFPLIIQNEWEIPIITSCYRMDHDKKGQECYVWDCCINSDCSRWICDDIQLREILVEWCLESCEIRDSVVLCRDRIAFPKMKKKGAELPALEVLNDELHQDYKAKMHKIIEEEAGDPMSILRGRNDDGDDNNDPDDGTLPPLFPIENKISGAKIEEIDKNEIAHRNLKQAPAPAPAPHEQQEDVPEYEVKMKRFKGAAYKLRILIENKAPNSKPDRFSPSYNFAENILYINGKLSIPLPRDIVVNAADIKIFHIRKERTLYIYI
notes: Pih1, S. cerevisiae, 344 amino acids
B4: GST-Nop58-NM (domain or fragment, S. cerevisiae, UniProt Q12499 1-284, looked up)
chain: MAYVLTETSAGYALLKASDKKIYKSSSLIQDLDSSDKVLKEFKIAAFSKFNSAANALEEANSIIEGKVSSQLEKLLEEIKKDKKSTLIVSETKLANAINKLGLNFNVVSDAVTLDIYRAIKEYLPELLPGMSDNDLSKMSLGLAHSIGRHKLKFSADKVDVMIIQAIALLDDLDKELNTYAMRCKEWYGWHFPELAKIVTDSVAYARIILTMGIRSKASETDLSEILPEEIEERVKTAAEVSMGTEITQTDLDNINALAEQIVEFAAYREQLSNYLSARMKAIA
notes: Nop58, S. cerevisiae, N-terminal and middle domains (lacks the C-terminal domain); end worked out from the reverse primer NOP58-852-XhoI-R (nucleotide 852 = codon 284); also called pGST-Nop58-NM; pGEX-Nop58-NM; source: E. coli BL21(DE3) pRIL, purified (glutathione Sepharose 4B); not shown: GST, N-terminal, kept
B5: GST-Nop58-MC (domain or fragment, S. cerevisiae, UniProt Q12499 158-447, looked up)
chain: KVDVMIIQAIALLDDLDKELNTYAMRCKEWYGWHFPELAKIVTDSVAYARIILTMGIRSKASETDLSEILPEEIEERVKTAAEVSMGTEITQTDLDNINALAEQIVEFAAYREQLSNYLSARMKAIAPNLTQLVGELVGARLIAHSGSLISLAKSPASTIQILGAEKALFRALKTKHDTPKYGLLYHASLVGQATGKNKGKIARVLAAKAAVSLRYDALAEDRDDSGDIGLESRAKVENRLSQLEGRDLRTTPKVVREAKKVEMTEARAYNADADTAKAASDSESDSDDE
notes: Nop58, S. cerevisiae, middle and C-terminal domains (lacks the N-terminal domain and the KKE/D repeat); start worked out from the forward primer NOP58-472-BamHI-F (nucleotide 472 = codon 158); The forward primer adds an ATG before the first Nop58 codon; also called pGST-Nop58-MC; pGEX-Nop58-MC; source: E. coli BL21(DE3) pRIL, purified (glutathione Sepharose 4B); not shown: GST, N-terminal, kept

Holding throughout (conditions): both partners purified
The target in the assay “full-length Pih1” is B3. Put plainly: pull-down; GST-Nop58 variants immobilised on glutathione Sepharose 4B, incubated with Pih1 or Pih1(1–230) 40 min at 30°C in GST lysis buffer (1×PBS, 0.1% NP40, 10% glycerol, 1 mM DTT); washes with 0.5 M NaCl; Ponceau S and Western blot.
For the assay “Pih1(1–230)”, the target named is B2. The description is as above.
A further assay concerns the target T1, Rvb1/Rvb2 complex (S. cerevisiae, UniProt Q03940 1-463; Q12464 1-471).
T1 construct: Rvb1, S. cerevisiae; Rvb2, S. cerevisiae, untagged; also called Rvb1/2; preformed Rvb1/2; source: E. coli BL21(DE3) pRIL, co-expressed (pCOLADuet-1), purified (Ni-NTA, TEV protease, Superdex 200); not shown: His6 (HV-tag, with TEV site), N-terminal, cleaved
Put plainly: pull-down; GST-Nop58-C on MagneGST glutathione particles incubated with 0.1 μM preformed Rvb1/2 or R2TP complex at 4°C for 16 h; washed with buffer H with 0.1 M KCl at 23°C; Western blot.

The target of assay [1] is T2, R2TP complex (recombinant, preformed) (S. cerevisiae, UniProt Q03940 1-463; Q12464 1-471; P25638 1-111; P38768 1-344).
T2 construct: Rvb1, S. cerevisiae; Rvb2, S. cerevisiae, untagged; Tah1, S. cerevisiae; Pih1, S. cerevisiae, untagged; also called preformed R2TP complex purified from E. coli; source: preformed complex purified from E. coli; not shown: His6 (HV-tag, with TEV site), N-terminal, cleaved; copies: + + +
T2 sequence (Q03940 whole entry, chain 1 of 3): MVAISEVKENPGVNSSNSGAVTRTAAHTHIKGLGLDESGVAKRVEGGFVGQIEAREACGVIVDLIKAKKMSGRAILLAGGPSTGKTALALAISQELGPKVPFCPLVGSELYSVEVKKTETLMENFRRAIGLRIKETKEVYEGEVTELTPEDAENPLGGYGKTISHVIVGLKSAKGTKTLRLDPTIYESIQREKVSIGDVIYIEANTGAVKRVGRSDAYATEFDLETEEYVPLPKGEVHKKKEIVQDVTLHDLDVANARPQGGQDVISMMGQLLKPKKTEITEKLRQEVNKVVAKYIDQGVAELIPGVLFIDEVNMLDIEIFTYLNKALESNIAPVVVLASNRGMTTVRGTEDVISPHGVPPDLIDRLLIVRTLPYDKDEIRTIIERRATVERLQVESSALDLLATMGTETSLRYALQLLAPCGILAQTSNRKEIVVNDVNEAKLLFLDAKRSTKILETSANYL
T2 sequence (Q12464 whole entry, chain 2 of 3): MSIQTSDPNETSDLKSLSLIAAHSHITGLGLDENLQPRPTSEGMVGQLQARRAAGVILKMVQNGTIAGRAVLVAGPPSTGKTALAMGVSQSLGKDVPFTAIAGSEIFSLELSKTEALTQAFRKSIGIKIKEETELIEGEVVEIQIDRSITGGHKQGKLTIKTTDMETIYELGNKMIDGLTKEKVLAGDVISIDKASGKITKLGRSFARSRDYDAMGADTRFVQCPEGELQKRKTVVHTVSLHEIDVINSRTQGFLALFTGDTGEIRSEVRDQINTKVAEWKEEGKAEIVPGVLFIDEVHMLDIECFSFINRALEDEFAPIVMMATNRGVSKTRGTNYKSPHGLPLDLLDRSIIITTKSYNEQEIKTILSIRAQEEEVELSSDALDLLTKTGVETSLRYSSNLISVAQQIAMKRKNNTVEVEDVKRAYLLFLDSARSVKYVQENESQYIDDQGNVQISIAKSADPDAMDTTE
T2 sequence (P25638 whole entry, chain 3 of 3): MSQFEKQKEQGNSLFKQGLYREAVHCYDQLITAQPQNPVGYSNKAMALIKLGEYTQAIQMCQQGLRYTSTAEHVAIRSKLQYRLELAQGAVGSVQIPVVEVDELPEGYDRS
Described as above.

For a further assay, the target named is T3, GST-Nop58-447 (S. cerevisiae, UniProt Q12499 1-447).
T3 construct: Cloned in pGEX-6P-1 (BamHI-XhoI); source: E. coli BL21(DE3) pRIL, purified (glutathione Sepharose 4B); not shown: GST, N-terminal, kept
T3 sequence (looked up): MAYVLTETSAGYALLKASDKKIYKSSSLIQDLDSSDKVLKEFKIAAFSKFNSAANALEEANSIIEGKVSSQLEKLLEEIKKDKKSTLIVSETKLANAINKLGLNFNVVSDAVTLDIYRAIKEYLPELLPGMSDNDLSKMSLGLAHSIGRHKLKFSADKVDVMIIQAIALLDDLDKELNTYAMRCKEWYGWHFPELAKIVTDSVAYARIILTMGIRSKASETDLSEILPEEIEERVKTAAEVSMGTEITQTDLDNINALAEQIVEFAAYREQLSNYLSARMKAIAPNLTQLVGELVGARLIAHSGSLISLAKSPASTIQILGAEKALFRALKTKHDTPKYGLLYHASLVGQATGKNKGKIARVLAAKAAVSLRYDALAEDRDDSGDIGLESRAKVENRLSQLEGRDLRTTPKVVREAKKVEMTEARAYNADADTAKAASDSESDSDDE
The experiment in a line: pull-down; GST-Nop58 variants immobilised on glutathione Sepharose 4B, incubated with Pih1 or Pih1(1–230) 40 min at 30°C in GST lysis buffer (1×PBS, 0.1% NP40, 10% glycerol, 1 mM DTT); washes with 0.5 M NaCl; Ponceau S and Western blot.

For the assay “GST-Nop58-MC”, the target named is B5. Described as above.
The target of the assay “GST-Nop58-NM” is B4. The description is as above.

T1 sequence (Q03940 whole entry, chain 1 of 2): as the sequence (Q03940 whole entry, chain 1 of 3) above
T1 sequence (Q12464 whole entry, chain 2 of 2): as the sequence (Q12464 whole entry, chain 2 of 3) above

B1: GST-Nop58-C (domain or fragment, S. cerevisiae, UniProt Q12499 285-447, looked up)
chain: PNLTQLVGELVGARLIAHSGSLISLAKSPASTIQILGAEKALFRALKTKHDTPKYGLLYHASLVGQATGKNKGKIARVLAAKAAVSLRYDALAEDRDDSGDIGLESRAKVENRLSQLEGRDLRTTPKVVREAKKVEMTEARAYNADADTAKAASDSESDSDDE
notes: also called pGST-Nop58-C; pGEX-Nop58-C; source: E. coli BL21(DE3) pRIL, purified (glutathione Sepharose 4B; MagneGST Glutathione Particles for the reconstitution with Rvb1/2 or R2TP); not shown: GST, N-terminal, kept
B1: the binding result (in the assay with full-length Pih1; with Pih1(1–230); with Rvb1/Rvb2 complex; in assay [1]) was “binds” throughout.

With B2, the binding result with GST-Nop58-447, with GST-Nop58-MC and with GST-Nop58-NM was “binds” in each case.

Regarding B3, the binding result in the assay with GST-Nop58-447 is listed as “binds”.

As for B4, in the assay with full-length Pih1, the binding result is “binds”.

Regarding B5, in the assay with full-length Pih1, the binding result is “binds”.
